Data as given in the nanobody polyreactivity screen of Harvey et al. (2022).

Assay: yeast display, Sf9 membrane polyspecificity reagent, FACS + sequencing; frameworks hold sequencing errors
Method in brief: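 In a synthetic yeast display library (Saccharomyces cerevisiae BJ5465), nanobody expression was induced with galactose for 36–48 hours. FACS gates were set low and high (top ~1%) using anti-HA fluorescence for expression and streptavidin fluorescence for binding of the Sf9 membrane reagent. Each polyreactivity label is drawn from the gate of origin.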

Sequence | polyreactivity (PSR sort gate)
QVQLVESGGGLVQAGGSLRLSCAASGRIFNYNAMGWYRQAPGKERELVATITYSDATTYYADSVKGRFTISRDNAKITVYLQMNSLKPEDTAVYYCNAPSRSYDRYISAGRRYDYWGQGTQVTVSS | low polyreactivity
QVQLVESGGGLVQAGGSLRLSCAASGRIFNYNAMGWYRQAPGKERELVAVITSGDSTNYADSVKGRFTISRDNAKNTVYLQMNSLKPVDTAVYYCAAEYYSIRYGPNSIEVYGMDYWGQGTQVTVSS | low polyreactivity
QVQLVESGGGLVQAGGSLRLSCAASGRIFPAYAMGWYRQAPGKERELVAAITWTGGRTYYADSVKGRFTISRDNAKNSFYLQMNILKPEDTAVYYCAKAPARSRGYEYWGQGTQVTVSS | low polyreactivity
QVQLVESGGGLVQAGGSLRLSCAASGRIFPAYVMGWYRQAPVKERELVATIDNGGGTYYADSVKGRFTISRDNAKNTVYLQMNSLKPEDTAVYYCARDRHVRWGLKMDYWGLGTQVTVSS | low polyreactivity
QVQLVESGGGLVQAGGSLRLSCAASGRIFPDNAMGWYRQAPGKERELVASITSGASTNYADSVKGRFTISRDNAKNTVYLQMNSLKPEDTAVYYCAAVTYAQYRRFDYWGQGTQVTVSS | high polyreactivity
QVQLVESGGGLVQAGGSLRLSCAASGRIFPDYDMGWYRQAPGKERELVAAITQRGGSTYADSVKGRFTISRDNAKNTVYLQMNSLKPEDTAVYYCAREYYEGYEYWGQGTQVTVSS | low polyreactivity
QVQLVESGGGLVQAGGSLRLSCAASGRIFPDYDMGWYRQAPGKERELVASISTRGGSTYADSVKGRFTISRDNAKNTVYLQMNSLKPEDTAVYYCATDGWKQSAYDYWGQGTQVTVSS | low polyreactivity
QVQLVESGGGLVQAGGSLRLSCAASGRIFPEYTMGWYRQAPGKERELVAAISKRGSSTNYADSVKGRFTISRDNAKNTVYLQMNSLKPEDTAVYYCAARGYTLSYVDMYYWGQGTQVIVSS | high polyreactivity
QVQLVESGGGLVQAGGSLRLSCAASGRIFPFNAMGWYRQAPGKERELVAAITSSGGRTYYADSVKGRFTISRDNAKNTVYLQMNSLKPEDTAVYYCAATLVRRARSGPMGYWGQGTQVTVSS | high polyreactivity
QVQLVESGGGLVQAGGSLRLSCAASGRIFPFNAMGWYRQAPGKERELVAVITWDGGSTYYADSVKGRFTISRDNAKNTVYLQMNSLKPEDTAVYYCAADIRRYYPGYEYWGQGTQVTVSS | low polyreactivity
QVQLVESGGGLVQAGGSLRLSCAASGRIFPFYAMGWYRPATWIQRELVAAITSSGGRTYYADSVKGRFTISRDIAKNTVYLQMNSLKPEETAVYYCAAGHGCYYRYFSQRDYWGQGTQVTVSS | low polyreactivity
QVQLVESGGGLVQAGGSLRLSCAASGRIFPFYAMGWYRQAPGKERELVAAITSSGGRTYYADSVKGRFTISRDNAKNTVYLQMNSLKPEDTAVYYCAAGHGGYYRYFSQRDYWGQGTQVTVSS | low polyreactivity
QVQLVESGGGLVQAGGSLRLSCAASGRIFPFYDMGWYRQAPGKERELVAAITSGTGTYYADSVKGRFTISRDNAKNTVYLQIYSLKPEDTAVYYCNARRYLRGYWGQGTQVTVSS | low polyreactivity
QVQLVESGGGLVQAGGSLRLSCAASGRIFPFYVMGWDRQAPGKERELVATINWSGGSTYYADSVKGRFTISRDNAKNTLYLQMNSLKPEDTAVYYCNAAPSDDYDYWGQGTQVTVSS | low polyreactivity
QVQLVESGGGLVQAGGSLRLSCAASGRIFPGNPMGWYRQAPGKERELVAGISFSGGRTYYADSVKGRFTISRDNAKNTVYLQMNSLKPEDTAVYYCAADAQAPPGGFKEYDYWGQGTQVTVSS | low polyreactivity
QVQLVESGGGLVQAGGSLRLSCAASGRIFPGNTMGWYRQAPGKERELVAAITRGGSTSYADSVKGRFTISRDNAKNTVYLQMNSLKPEDTAVYYCATRTHGEGTRRDSWGQGTQVTVSS | low polyreactivity
QVQLVESGGGLVQAGGSLRLSCAASGRIFPGYAMGWYRQAPGKERELVAAISGGGGRTYYADSVKGRFTISRDNAKNTVYLQMNSLKPEDTAVYYCAADTTPPRGFDYWGQGTQVTVSS | high polyreactivity
QVQLVESGGGLVQAGGSLRLSCAASGRIFPHYSMGWYRQAPGKERELVAAISWSGSSTYYADSVKGRFTISRDNAKNTVYLQMNSLKPEDTAVYYCNAVRRGIGYDYGYWGQGTQVTVSS | high polyreactivity
QVQLVESGGGLVQAGGSLRLSCAASGRIFPKNAMGWYRQAPGKERELVASISSAGSTNYADSVKGRFTISRDNAKNTVYLQMNSLKPEDTAVYYCAAYHQSFGGVKGYYWGQGTQVTVSS | high polyreactivity
QVQLVESGGGLVQAGGSLRLSCAASGRIFPKYAMGWYRQAPGKERELVAGITKRVGSTYYADSVKGRFTISRDNAKNTVYLQMNSLKPEDTAVYYCAKRWVSRTHGYWGQGTQVTVSS | low polyreactivity
QVQLVESGGGLVQAGGSLRLSCAASGRIFPKYAMVWYRQAPGKERELVAGITKRVGSTYYADSVKGRFTISRDNAKNTVYLQMNSLKPEDTAVYYCAADYRYLIDYLDPEKEGMDYWGQGTQVTVSS | low polyreactivity
QVQLVESGGGLVQAGGSLRLSCAASGRIFPPNAMGWYRQAPGKERELVAGITSSGDTTYYADSVKGRFTISRDNAKNTVYLQMNSLKPEDTAVYYCAKDEVYADDRSALFDYWGQGTQVTVSS | low polyreactivity
QVQLVESGGGLVQAGGSLRLSCAASGRIFPPYAMGWYRQAPGKERELVAAISCGGSRTYYADSVKGRFTISRDNAKNTVYLQMNSLKPEDTAVYYCAAKNYLAKSGDYWGQGTQVTVSS | high polyreactivity
QVQLVESGGGLVQAGGSLRLSCAASGRIFPQYAMGWYRQAPGKERELVAAISVSGTRTYYADSVKGRFTISRDNAKNTVYLQMNSLKPEDTAVYYCNTLGKYDGFYYWGQGTQVTVSS | high polyreactivity
QVQLVESGGGLVQAGGSLRLSCAASGRIFPRNAMGWYRQAPGQERELVAAITKSGGSTYYADSVKGRFTISRDNAKNTVYLQMNSLKPEDTAVYYCNAVQYRNYYWGQGTQVTVSS | high polyreactivity
QVQLVESGGGLVQAGGSLRLSCAASGRIFPRYAMGWYRQAPGKERELVAAITTGGSTYADSVKGRFTISRDNAKNTVYLQMNSLKPEDTAVYYCAKRDSNKRDYWGQGTQVTVSS | low polyreactivity
QVQLVESGGGLVQAGGSLRLSCAASGRIFPSYAMGWYRKAPGKERELVAAISDSDGSTYYADSVKGRFTISRDNAKNTVYLQMNSLKPEDTAVYYCAAEGSFPAYDYWGQGTQVTVSS | low polyreactivity
QVQLVESGGGLVQAGGSLRLSCAASGRIFPSYAMGWYRQAPGKERELDATISSGGRTYYADSVKGRFTISRDNAKNTVYLQMNILKPEYTAVYYCNADRTQDRNPYTYATFDYWGQGTQVTVSS | low polyreactivity
QVQLVESGGGLVQAGGSLRLSCAASGRIFPSYAMGWYRQAPGKERELVAAISYSGASTYYADSVKGRFTFSRDNAKNTVYLQMNSLKPEDTAVYYCNAESGPKYYWGYAGTFDYWGQGTQVTVSS | low polyreactivity
QVQLVESGGGLVQAGGSLRLSCAASGRIFPSYAMGWYRQAPGKERELVATISSGGRTYYADSVKGRFTISRDNAKNTVYLQMTSLKPEDTAVYYCARRSLYHVRTQIYEYWGQGTQVTVSS | low polyreactivity
